Where two headings read alike, the source gives them in different places.
Assay: In vivo biodistribution by organ and tissue extraction
Set-up: species or system male Wistar rats
Details: for tissue uptake dose at 4 h / SUV at 24 h / tissue uptake dose at 24 h / SUV at 48 h / tissue uptake dose at 48 h / SUV at 1 h / tissue uptake dose at 1 h / SUV at 4 h / tissue uptake dose at 5 min / SUV at 5 min / tissue uptake dose: male, Wistar, total radioactivity; for tissue uptake dose at 4 h / SUV at 4 h: 240 min p.i.; for tissue uptake dose at 4 h / SUV at 24 h / tissue uptake dose at 24 h / SUV at 48 h / tissue uptake dose at 48 h / SUV at 1 h / tissue uptake dose at 1 h / SUV at 4 h / tissue uptake dose at 5 min / SUV at 5 min: mean ± SD; for SUV at 24 h / tissue uptake dose at 24 h: 1440 min p.i.; for SUV at 48 h / tissue uptake dose at 48 h: 2880 min p.i.; for SUV at 1 h / tissue uptake dose at 1 h: 60 min p.i.; for tissue uptake dose at 5 min / SUV at 5 min: 5 min p.i.; for tissue uptake dose: whole body, end of observation (Fig. 7c), time not given, mean ± SEM, read-out: remaining activity in the body; for AUC Kidney / AUC Liver: calculated between 1 and 48 h; for t1/2 Blood / t1/2 Kidney / t1/2 Liver: calculated from 24 to 48 h
Protocol: The present study includes data obtained from a total of 50 animals. Four animals (body weight 227 ± 10 g) for each time point were injected intravenously into a tail vein or subcutaneously with approximately 0.3 MBq ([…]) [^64Cu]Cu-NOTA-HsTX1[R14A] conjugate in 0.5 mL electrolyte solution E-153 (Serumwerk Bernburg, Germany). Animals were euthanised at 5, 60, 240, 1440 and 2880 min post-injection. Blood and the major organs were collected, weighed, and counted in a cross-calibrated γ-counter (Isomed 1000, Isomed GmbH, Dresden) and Wallac WIZARD Automatic Gamma Counter (PerkinElmer, Germany). The radioactivity of the tissue samples was decay-corrected and calibrated by comparing the counts in tissue with the counts in aliquots of the injected radiotracer that had been measured in the γ-counter at the same time. The activity in the selected organs was expressed as percent-injected dose per organ (% ID) and the activity concentration in tissues and organs as standardised uptake value (SUV). Values are quoted as mean ± standard error of mean (SEM) for each group of four animals.

[1] = testes, iv, 0.3 MBq, rat, i.v., n=4, read-out: Testes activity amount
[2] = testes, sc, 0.3 MBq, rat, s.c., n=4, read-out: Testes SUV
[3] = testes, sc, 0.3 MBq, rat, s.c., n=4, read-out: Testes activity amount
[4] = thymus, iv, 0.3 MBq, rat, i.v., n=4, read-out: Thymus activity amount
[5] = thymus, iv, 0.3 MBq, rat, i.v., n=8, read-out: Thymus activity amount
[6] = thymus, iv, rat, i.v., n=4, read-out: Thymus SUV
[7] = thymus, iv, rat, i.v., n=8, read-out: Thymus SUV
[8] = thymus, sc, 0.3 MBq, rat, s.c., n=4, read-out: Thymus activity amount
[9] = thymus, sc, rat, s.c., n=4, read-out: Thymus SUV
[10] = thyroid, iv, 0.3 MBq, rat, i.v., n=4, read-out: Thyroid activity amount
[11] = thyroid, iv, 0.3 MBq, rat, i.v., n=8, read-out: Thyroid activity amount
[12] = thyroid, sc, 0.3 MBq, rat, s.c., n=4, read-out: Thyroid activity amount
[13] = white adipose tissue, iv, 0.3 MBq, rat, i.v., n=4, read-out: WAT (white adipose tissue) SUV
[14] = white adipose tissue, iv, 0.3 MBq, rat, i.v., n=8, read-out: WAT (white adipose tissue) SUV
[15] = white adipose tissue, sc, 0.3 MBq, rat, s.c., n=4, read-out: WAT (white adipose tissue) SUV
[16] = whole blood, iv, 0.3 MBq, rat, i.v., n=4, read-out: Blood SUV

`CSCC[C@@H]1NC(=O)[C@@H]2CSSC[C@H](NC(=O)[C@H](CO)NC(=O)[C@H](C)NC(=O)COCCOCCNC(=O)CN3CCN(CC(=O)O)CCN(CC(=O)O)CC3)C(=O)N[C@@H](CCCNC(=N)N)C(=O)N[C@@H]([C@@H](C)O)C(=O)N3CCC[C@H]3C(=O)N[C@@H](CCCCN)C(=O)N[C@@H](CC(=O)O)C(=O)N[C@H]3CSSC[C@H](NC(=O)[C@H](CCCCN)NC(=O)[C@H](CCCNC(=N)N)NC(=O)[C@H](CC(N)=O)NC1=O)C(=O)N[C@@H](CCCCN)C(=O)N[C@H]1CSSC[C@H](NC(=O)[C@@H]4CCCN4C(=O)[C@H](CC(=O)O)NC(=O)[C@H](C)NC3=O)C(=O)N[C@@H](C)C(=O)N[C@@H](CCCCN)C(=O)N[C@@H](CCC(=O)O)C(=O)N[C@@H]([C@@H](C)O)C(=O)NCC(=O)N[C@@H](CSSC[C@@H](C(N)=O)NC(=O)[C@H](CCCNC(=N)N)NC(=O)[C@H](CC(N)=O)NC1=O)C(=O)N1CCC[C@H]1C(=O)N[C@@H](Cc1ccc(O)cc1)C(=O)NCC(=O)N[C@@H](CCCCN)C(=O)N2` [[^64Cu]Cu-NOTA-HsTX1[R14A], metal not drawn] showed a tissue uptake dose at 4 h [1] of 0.21 ± 0.01 %ID, an SUV at 24 h (testes, iv, 0.3 MBq, rat, i.v., n=8, read-out: Testes SUV) of 0.87 ± 0.34 SUV and a tissue uptake dose at 24 h (testes, iv, 0.3 MBq, rat, i.v., n=8, read-out: Testes activity amount) of 1.05 ± 0.13 %ID. The SUV at 48 h (testes, iv, 0.3 MBq, rat, i.v., n=4, read-out: Testes SUV) was 0.5 ± 0.02 SUV, the tissue uptake dose at 48 h [1] was 0.76 ± 0.02 %ID and the SUV at 1 h [2] was 0.15 ± 0.01 SUV. For the same compound, the tissue uptake dose at 1 h [3] was 0.21 ± 0.01 %ID, the SUV at 4 h [2] was 0.12 ± 0.01 SUV and the tissue uptake dose at 4 h [3] was 0.2 ± 0.03 %ID. The SUV at 24 h [2] was 0.54 ± 0.02 SUV, the tissue uptake dose at 24 h [3] was 0.92 ± 0.06 %ID and the SUV at 48 h [2] was 0.44 ± 0.01 SUV. The tissue uptake dose at 48 h [3] was 0.63 ± 0.06 %ID, the tissue uptake dose at 5 min [4] was 0.37 ± 0.07 %ID and the tissue uptake dose at 1 h [5] was 0.37 ± 0.08 %ID. For the same compound, the tissue uptake dose at 4 h [4] was 0.37 ± 0.04 %ID, the tissue uptake dose at 24 h [5] was 0.21 ± 0.03 %ID and the tissue uptake dose at 48 h [4] was 0.17 ± 0.02 %ID. For the same compound, the SUV at 5 min [6] was 1.51 ± 0.08 SUV, the SUV at 1 h [7] was 1.33 ± 0.19 SUV and the SUV at 4 h [6] was 1.07 ± 0.02 SUV. The SUV at 24 h [7] was 0.74 ± 0.15 SUV, the SUV at 48 h [6] was 0.53 ± 0.02 SUV and the tissue uptake dose at 1 h [8] was 0.46 ± 0.01 %ID. It also gave a tissue uptake dose at 4 h [8] of 0.43 ± 0.04 %ID, a tissue uptake dose at 24 h [8] of 0.22 ± 0.01 %ID and a tissue uptake dose at 48 h [8] of 0.16 ± 0.02 %ID. The SUV at 1 h [9] was 1.15 ± 0.03 SUV, the SUV at 4 h [9] was 1.07 ± 0.11 SUV and the SUV at 24 h [9] was 0.63 ± 0.05 SUV. The SUV at 48 h [9] was 0.46 ± 0.05 SUV, the tissue uptake dose at 5 min [10] was 0.07 %ID and the tissue uptake dose at 1 h [11] was 0.11 ± 0.02 %ID. The tissue uptake dose at 4 h [10] was 0.12 ± 0.01 %ID, the tissue uptake dose at 24 h [11] was 0.08 ± 0.01 %ID and the tissue uptake dose at 48 h [10] was 0.07 ± 0.02 %ID. The tissue uptake dose at 1 h [12] was 0.13 ± 0.02 %ID, the tissue uptake dose at 4 h [12] was 0.11 ± 0.02 %ID and the tissue uptake dose at 24 h [12] was 0.09 ± 0.05 %ID. For the same compound, the tissue uptake dose at 48 h [12] was 0.03 ± 0.02 %ID, the SUV at 5 min [13] was 0.28 ± 0.06 SUV and the SUV at 1 h [14] was 0.19 ± 0.07 SUV. The SUV at 4 h [13] was 0.15 SUV, the SUV at 24 h [14] was 0.19 ± 0.09 SUV and the SUV at 48 h [13] was 0.34 ± 0.08 SUV. For the same compound, the SUV at 1 h [15] was 0.25 ± 0.05 SUV, the SUV at 4 h [15] was 0.17 ± 0.05 SUV and the SUV at 24 h [15] was 0.22 ± 0.01 SUV. For the same compound, the SUV at 48 h [15] was 0.17 ± 0.08 SUV, the SUV at 4 h [16] was 0.51 ± 0.02 SUV and the SUV at 24 h (whole blood, iv, 0.3 MBq, rat, i.v., n=8, read-out: Blood SUV) was 0.71 ± 0.16 SUV. The SUV at 48 h [16] was 0.38 ± 0.02 SUV, the SUV at 1 h (whole blood, sc, 0.3 MBq, rat, s.c., n=4, read-out: Blood SUV) was 0.65 ± 0.11 SUV and the tissue uptake dose (iv, 0.3 MBq, rat, i.v., 8 animals) was 48 ± 3 %ID. For the same compound, the tissue uptake dose (sc, 0.3 MBq, rat, s.c., 4 animals) was 45 ± 3 %ID, the brain uptake (rat) was “negligible” and the “AUC Kidney” value (rat, i.v., n=8) was 1417 ± 102 SUV x h. The “AUC Liver” value (rat, i.v., n=8) was 92,7 ± 11,0 SUV x h, the “t1/2 Blood” value (rat, i.v., n=8) was 49,5 h and the “t1/2 Kidney” value (rat, i.v., n=8) was 14,7 h. The “t1/2 Liver” value (rat, i.v., n=8) was 39,5 h, the “Cmax Kidney” value (rat, i.v., n=8) was 74,8 ± 12,8 SUV and the “Cmax Liver” value (rat, i.v., n=8) was 2,50 ± 0,57 SUV. The “Peak time Blood” value (rat, i.v., n=8) was 1 h, the “Peak time Kidney” value (rat, i.v., n=8) was 1 h and the “Peak time Liver” value (rat, i.v., n=8) was 24 h. For the same compound, the “AUC Kidney” value (rat, s.c., n=4) was 1285 ± 57 SUV x h, the “AUC Liver” value (rat, s.c., n=4) was 87,8 ± 9,5 SUV x h and the “t1/2 Blood” value (rat, s.c., n=4) was 46,4 h. For the same compound, the “t1/2 Kidney” value (rat, s.c., n=4) was 18,9 h, the “t1/2 Liver” value (rat, s.c., n=4) was 35,9 h and the “Cmax Blood” value (rat, s.c., n=4) was 0,65 ± 0,11 SUV. The “Cmax Kidney” value (rat, s.c., n=4) was 70,2 ± 4,1 SUV, the “Cmax Liver” value (rat, s.c., n=4) was 2,23 ± 0,32 SUV and the “Peak time Blood” value (rat, s.c., n=4) was 1 h. The “Peak time Kidney” value (rat, s.c., n=4) was 4 h, the “Peak time Liver” value (rat, s.c., n=4) was 24 h and the “biological half-life of the total activity in the rat body” value (s.c.) was 42.0 h.
